Residue numbers refer to the chain shown, from its start. Blank lines part the entries; values can stand above or below the binder they belong to.
Assays:
[1] = target: T1, human Fzd8 cysteine rich domain (CRD) (human, UniProt Q9H461 28-153, limits assumed); test: BLI, Fab on captured biotinylated Fzd CRD; *** = 100 nM > KD >= 10 nM
T1 construct: domain: cysteine rich domain (CRD); C-terminally biotinylated in the BLI assay; also called hFzd8; hFzd8 (CRD)
T1 sequence (looked up): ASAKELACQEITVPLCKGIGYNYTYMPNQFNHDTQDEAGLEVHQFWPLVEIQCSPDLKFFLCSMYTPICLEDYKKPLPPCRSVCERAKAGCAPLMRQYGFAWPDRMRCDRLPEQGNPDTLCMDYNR
Experimental: (§1) C-terminal biotinylated Fzd CRD recombinant protein was diluted to 20 nM in the running buffer (PBS, 0.05% Tween-20, 0.5% BSA, pH 7.2) and captured to the SA biosensor until coupling length reached 0.2 nm. Following capture of the Fzd CRD, the SA biosensor with captured biotinylated-Fzd CRD was dipped into wells containing the relevant antibody fragment at 7 different concentrations (0, 1.37, 4.12, 12.4, 37, 111.1, 333.3, 1000 nM) in running buffer, plus a well with only running buffer as a reference channel. KD was determined by global fitting, 1:1 binding model according to manufacturer recommended settings.

[2] = target: human Fzd2 CRD (human, UniProt Q14332 24-155); test: BLI
Experimental: as §1

[3] = target: mouse Fzd1 CRD (mouse, UniProt O70421 100-227); test: BLI
Experimental: as §1

[4] = target: human Fzd7 CRD (human, UniProt O75084 33-165); test: BLI
Experimental: as §1

[5] = target: T2, human Fzd3 CRD (human, UniProt Q9NPG1 23-138, limits assumed); test: BLI
T2 construct: domain: cysteine rich domain (CRD)
T2 sequence (looked up): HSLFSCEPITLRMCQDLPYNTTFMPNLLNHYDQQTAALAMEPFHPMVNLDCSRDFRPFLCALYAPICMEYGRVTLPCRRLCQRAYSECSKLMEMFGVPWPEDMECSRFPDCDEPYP
Experimental: as §1

[6] = target: T3, human Fzd9 CRD (human, UniProt O00144 23-157, limits assumed); test: BLI
T3 construct: domain: cysteine rich domain (CRD)
T3 sequence (looked up): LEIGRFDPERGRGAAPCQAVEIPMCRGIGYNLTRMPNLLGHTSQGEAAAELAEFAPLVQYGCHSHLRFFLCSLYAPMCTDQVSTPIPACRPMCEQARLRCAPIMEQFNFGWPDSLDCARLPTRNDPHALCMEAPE
Experimental: as §1

[7] = target: T4, human Fzd6 CRD (human, UniProt O60353 19-134, limits assumed); test: BLI
T4 construct: domain: cysteine rich domain (CRD)
T4 sequence (looked up): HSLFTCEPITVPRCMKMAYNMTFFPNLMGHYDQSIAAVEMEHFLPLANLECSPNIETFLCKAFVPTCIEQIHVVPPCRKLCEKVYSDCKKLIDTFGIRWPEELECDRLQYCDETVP
Experimental: as §1

[8] = target: human Fzd1 CRD (human, UniProt Q9UP38 105-232); test: BLI
Experimental: as §1

[9] = target: T5, mouse Fzd4 CRD (mouse, UniProt Q61088 37-163, limits assumed); test: BLI
T5 construct: domain: cysteine rich domain (CRD)
T5 sequence (looked up): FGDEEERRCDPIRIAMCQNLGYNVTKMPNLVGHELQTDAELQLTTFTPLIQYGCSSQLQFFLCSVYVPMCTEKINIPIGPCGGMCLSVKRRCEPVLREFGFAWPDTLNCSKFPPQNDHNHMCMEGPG
Experimental: as §1

[10] = target: T6, human Fzd10 CRD (human, UniProt Q9ULW2 21-152, limits assumed); test: BLI
T6 construct: domain: cysteine rich domain (CRD)
T6 sequence (looked up): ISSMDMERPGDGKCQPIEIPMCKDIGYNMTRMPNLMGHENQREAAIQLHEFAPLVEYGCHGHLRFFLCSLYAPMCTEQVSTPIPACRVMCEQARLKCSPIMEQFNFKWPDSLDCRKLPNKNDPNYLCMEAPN
Experimental: as §1

[11] = target: T7, mouse Fzd10 CRD (mouse, UniProt Q8BKG4 22-153, limits assumed); test: BLI
T7 construct: domain: cysteine rich domain (CRD)
T7 sequence (looked up): T6 sequence (looked up) with M6L, I17V, M29T, G61S, N105K, K107R, R115S
Experimental: as §1

[12] = target: mouse Fzd7 CRD (mouse, UniProt Q61090 33-165); test: BLI
Experimental: as §1

[13] = target: T8, mouse Fzd3 CRD (mouse, UniProt Q61086 23-138, limits assumed); test: BLI
T8 construct: domain: cysteine rich domain (CRD)
T8 sequence (looked up): T2 sequence (looked up)
Experimental: as §1

[14] = target: mouse Fzd2 CRD (mouse, UniProt Q9JIP6 29-160); test: BLI
Experimental: as §1

[15] = target: T9, mouse Fzd6 CRD (mouse, UniProt Q61089 19-134, limits assumed); test: BLI
T9 construct: domain: cysteine rich domain (CRD)
T9 sequence (looked up): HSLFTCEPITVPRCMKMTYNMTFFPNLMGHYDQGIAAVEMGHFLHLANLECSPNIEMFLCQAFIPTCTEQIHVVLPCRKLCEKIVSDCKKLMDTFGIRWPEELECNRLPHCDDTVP
Experimental: as §1

[16] = target: T10, human Fzd4 CRD (human, UniProt Q9ULV1 37-163, limits assumed); test: BLI
T10 construct: domain: cysteine rich domain (CRD)
T10 sequence (looked up): T5 sequence (looked up) with A15S, R97K, D105E, T106S
Experimental: as §1

[17] = target: T11, mouse Fzd9 CRD (mouse, UniProt Q9R216 24-158, limits assumed); test: BLI
T11 construct: domain: cysteine rich domain (CRD)
T11 sequence (looked up): T3 sequence (looked up) with A14P, V20M, E50Q, A55S
Experimental: as §1

[18] = target: T12, mouse Fzd5 CRD (mouse, UniProt Q9EQD0 27-152, limits assumed); test: BLI
T12 construct: domain: cysteine rich domain (CRD)
T12 sequence (looked up): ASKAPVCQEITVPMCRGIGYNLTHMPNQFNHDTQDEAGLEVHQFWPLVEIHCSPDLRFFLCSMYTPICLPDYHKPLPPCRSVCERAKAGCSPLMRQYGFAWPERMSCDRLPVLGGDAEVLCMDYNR
Experimental: as §1

[19] = target: T13, human Fzd5 CRD (human, UniProt Q13467 27-152, limits assumed); test: BLI
T13 construct: domain: cysteine rich domain (CRD)
T13 sequence (looked up): T12 sequence (looked up) with H51Q, G115R
Experimental: as §1

[20] = target: T14, human Fzd2 hinge region (human, UniProt Q14332 150-201); test: phage ELISA
T14 construct: also called hFzd2L; 2L

[21] = target: Fzd2 CRD (UniProt Q14332 24-155); test: BLI (Octet Red 96), biotinylated Fzd2 CRD on streptavidin biosensor
Experimental: Binding kinetics of monospecific Fzd binders to either (CRD) or the extracellular hinge region (hinge) was determined by bio-layer interferometry (BLI) using Octet Red 96 (PALL ForteBio, Fremont, Calif.) instruments at 30° C., 1000 rpm with streptavidin (SA) biosensors. N-terminal biotinylated Fzd1 or Fzd2 CRD and Fzd1 or Fzd 2 hinge proteins were captured on the SA biosensor. Following capture of biotinylated-Fzd1 or Fzd2, the SA biosensor with captured […] was dipped into wells containing the relevant antibodies at 7 different concentrations in running buffer plus a well with only running buffer as a reference channel. KD was determined by global fitting. As shown in FIGS. 4A-4H these antibody fusion proteins only bound to either Fzd1 or Fzd2 protein with the hinge region, and not to the CRD domains alone.

KD [1]: 10 to 100 nM | binding result [2]: no binding (tested: 1000 nM) | binding result [3]: no binding (tested: 1000 nM) | binding result [4]: no binding (tested: 1000 nM) | binding result [5]: no binding (tested: 1000 nM) | binding result [6]: no binding (tested: 1000 nM) | binding result [7]: no binding (tested: 1000 nM) | binding result [8]: no binding (tested: 1000 nM) | binding result [9]: no binding (tested: 1000 nM) | binding result [10]: no binding (tested: 1000 nM) | binding result [11]: no binding (tested: 1000 nM) | binding result [12]: no binding (tested: 1000 nM) | binding result [13]: no binding (tested: 1000 nM) | binding result [14]: no binding (tested: 1000 nM) | binding result [15]: no binding (tested: 1000 nM) | binding result [16]: no binding (tested: 1000 nM) | binding result [17]: no binding (tested: 1000 nM) | binding result [18]: no binding (tested: 1000 nM) | binding result [19]: no binding (tested: 1000 nM)
B1: 027S-E5 Fab (Fab, V domains shown)
VH: QVQLEQSGAEVKKPGASVKVSCKASGGTFSSYAISWVRQAPGQGLEWMGMINPSGGSTTYAQKFQGRVTMTRDTSTSTVYMELSSLRSEDTAVYYCARQAGLHCSSTSCYLGNWFDPWGQGTLVTVSS
VL: DIQMTQSPSSLSASVGDRVTITCRASQGITKSLAWYQQKPGKAPKLLIYAASNLATGVPSRFSGSGSGTDFTLTISSLQPEDFATYYCQQYNTFPITFGQGTRLEIKR
notes: Fab chains as printed, heavy chain with hexa-histidine tag; also called 027S-E05

binding result [20]: binds
B2: 031S-B02 (antibody, V domains shown)
VH: EVQLLESGGGLVQPGGSLRLSCAASGFTFSSYWMSWVRQAPGKGLEWVSAIGGSGANAYYADSVKGRFTISRDNSKNTLYLQMNSLRAEDTAVYYCVRDTNWAFDLWGQGTMVTVSS
VL: EIVMTQSPATLSVSPGERATLSCRASQSVSGSYLAWYQQKPGQAPRLLIYGASTRATGIPARFSGSGSGTEFTLTISSLQSEDFAVYYCQQYGSSPLTFGQGTKVEIK
notes: also called 31SB2

binding result [21]: no binding
B3: 031S-B02 Fab (Fab, V domains shown)
VH: B2 VH
VL: B2 VL
notes: also called 31SB2

Reference: US20220275095A1 (SURROZEN OPERATING, published 2022)
